Experimental data reported in patent US6797812B2, “Caspase-14, an apoptotic protease, nucleic acids encoding and methods of use” (Thomas Jefferson University, priority 1997, dated 2004).

Columns and labels:
mouse procaspase-14 = molecular target: T1, mouse procaspase-14 (Mus musculus, UniProt O89094); test: Processing of 35S labeled procaspase-14 by Granzyme B and purified recombinant caspases; format: biochemical; settings: Granzyme B 14 ng/μl or recombinant caspases 20 ng/μl, ICE buffer, 37° C., 1 h, FIG. 5B
T1 construct: made in house
T1 sequence (O89094 1-257): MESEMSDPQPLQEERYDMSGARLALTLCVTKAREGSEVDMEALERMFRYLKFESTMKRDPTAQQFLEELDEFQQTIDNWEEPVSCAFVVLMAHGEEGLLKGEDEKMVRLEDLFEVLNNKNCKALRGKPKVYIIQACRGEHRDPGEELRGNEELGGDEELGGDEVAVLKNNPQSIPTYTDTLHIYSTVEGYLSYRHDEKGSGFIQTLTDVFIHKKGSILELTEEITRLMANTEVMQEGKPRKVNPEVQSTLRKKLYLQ
Method: Upon expression in bacteria, all procaspases are known to autoprocess to various degrees to generate the mature caspase which is composed of the large and small subunits. The observed auto-activation in bacterial overexpression systems is probably mediated by overexpression-induced oligomerization. […] To test this possibility procaspase-14 was incubated with Granzyme B which is known to process several caspase proenzymes. In addition procaspase-14 was incubated with different purified recombinant caspases.
Processing of mouse procaspase-14 by Granzyme B and purified recombinant caspases was carried out under the following conditions: ^35S labeled procaspase-14 was incubated with purified Granzyme B (14 ng/μl) or the indicated purified recombinant caspases (20 ng/μl) in ICE buffer (25 mM Hepes, 1 mM EDTA, 5 mM DTT, 0.1% CHAPS, pH 7.5) at 37° C. for 1 h. The reactions were stopped by addition of an SDS-sample buffer and then the products were analyzed by SDS-PAGE and autoradiography.

MCF-7 cells = test: Overexpression of procaspases in MCF-7 cells, morphological signs of apoptosis; format: cell-based; settings: transient transfection, X-gal staining 30 h after transfection, FIG. 4
Source text: On the other hand overexpression of the large prodomain initiator procaspases such as procaspase-8 can induce apoptosis, due to their ability to undergo prodomain-mediated oligomerization. To test the ability of procaspase-14 to induce apoptosis in transfected cells, MCF-7 cells were transiently transfected with procaspase-14 in a PRSC lac-Z expression construct under the CMV promoter. Cells were also transfected with an empty vector or constructs encoding procaspase-3, -6, -8, or -10 as controls. The cells were stained with X-gal 30 h after transfection and examined for morphological signs of apoptosis The percentage of round blue apoptotic cells (mean±SD) were represented as a function of total blue cells under each condition (n≧3). SD was less than 5%.

[1] = Autoprocessing of procaspases overexpressed in bacteria (SDS-PAGE, Coomassie); format: biochemical; settings: expressed in Escherichia coli, Talon-affinity purified, FIG. 5A
[2] = test system: S100 extracts from human embryonic kidney 293 cells; test: Cytochrome c dependent processing of procaspases in S100 extracts; format: biochemical; settings: cytochrome c 50 ng/μl, dATP 1 mM, 30° C., 1 h, FIG. 6
Method: To determine if caspase-14 was activated by a way of Apaf-1 and caspase-9, cytochrome c dependent activation was tested. ^35S labeled procaspase-3 (FIG. 6, lanes 1 & 2), procaspase-7 (FIG. 6, lanes 3 & 4), or procaspase-14 (FIG. 6, lanes 5 & 6) were incubated with S100 extracts from human embryonic kidney 293 cells in the absence (−) or presence (+) of cytochrome c (50 ng/μl) and dATP (1 mM) in buffer A (20 mM Hepes, 10 mM KCl, 1.5 mM MgCl2, 1 mM EDTA, 1 mM EGTA, 1 mM DTT, 0.1 mM PMSF, pH 7.5) at 30° C. for 1 h. The reaction products were then analyzed by SDS-PAGE and autoradiography.

procaspase-14 = test: Processing of T7-tagged procaspase-14 in MCF-7-FAS cells after anti-Fas antibody or TRAIL; format: cell-based; settings: treated 36 h after transfection for 3 h, FIG. 5C
Method: (§1) Since caspase-8 and -10 are initiator caspases that are activated by oligomerization of the death receptors (i.e., Fas, TRAIL-R) by their ligands or agonist antibodies, the possibility that procaspase-14 is processed in vivo after induction of apoptosis by anti-Fas antibody or the cytotoxic ligand TRAIL was tested. A mammalian expression construct encoding N-terminal T7-tagged procaspase-14 was transfected into MCF-7-FAS cells. The cells were treated 36 h after transfection with agonist anti-Fas antibody or TRAIL for 3 h. Cells were harvested and lysed by addition of SDS-sample buffer. The cellular proteins were analyzed by SDS-PAGE and then immunoblotted with an anti-T7 HRP-conjugated monoclonal antibody (FIG. 5C, left panel) to detect procaspase-14. The same samples were also immunoblotted with a polyclonal antibody (anti-Mch3α) that preferentially detects the proform of caspase-7 (FIG. 5C, middle panel), or a mixture of the anti-Mch3α antibody and CM-1 antibody that preferentially detects the processes fragments of caspase-7 (FIG. 5C, right panel) to detect the endogenous caspase-7. Pro indicates the proenzyme, LS indicates the large subunit and SS indicates the small subunit. […] The cleavage products of procaspase-14 were not clearly detectable probably due to loss of the epitope tag after processing of the small prodomain of procaspase-14 at Asp7 or Asp 17. […]

procaspase-7 = test: Processing of endogenous procaspase-7 in MCF-7-FAS cells after anti-Fas antibody or TRAIL; format: cell-based; settings: treated for 3 h, FIG. 5C
Method: as §1

Molecule | processing of procaspase-14 (mouse procaspase-14) | induction of apoptosis (round blue apoptotic cells as a function of total blue cells) (MCF-7 cells) | processing of the proenzyme on overexpression in bacteria [1] | also measured
Granzyme B: purified protease known to process several caspase proenzymes | significant amount of processing |  |  | 
procaspase-3: small prodomain executioner procaspase used as control (protein, UniProt P42574 1-277, looked up, pro-form, small prodomain executioner procaspase used as control) pro-form: MENTENSVDSKSIKNLEPKIIHGSESMDSGISLDNSYKMDYPEMGLCIIINNKNFHKSTGMTSRSGTDVDAANLRETFRNLKYEVRNKNDLTREEIVELMRDVSKEDHSKRSSFVCVLLSHGEEGIIFGTNGPVDLKKITNFFRGDRCRSLTGKPKLFIIQACRGTELDCGIETDSGVDDDMACHKIPVEADFLYAYSTAPGYYSWRNSKDGSWFIQSLCAMLKQYADKLEFMHILTRVNRKVATEFESFSFDATFHAKKQIPCIVSMLTKELYFYH |  | unable to induce any significant amount of apoptosis | completely processes | 
procaspase-14: proenzyme of caspase-14, a cell death specific cysteine protease of the caspase family (mouse SEQ ID NO:2) (protein) KPDMESEMSDPQPLQEERYDMSGARLALTLCVTKAREGSEVDMEALERMFRYLKFESTMKRDPTAQQFLEELDEFQQTIDNWEEPVSCAFVVLMAHGEEGLLKGEDEKMVRLEDLFEVLNNKNCKALRGKPKVYIIQACRGEHRDPGEELRGNEELGGDEELGGDEVAVLKNNPQSIPTYTDTLHIYSTVEGYLSYRHDEKGSGFIQTLTDVFIHKKGSILELTEEITRLMANTEVMQEGKPRKVNPEVQSTLRKKLYLQ |  | unable to induce any significant amount of apoptosis | no significant processing | cleavage/activation in S-100 extracts activated by cytochrome c and dATP [2]: no cleavage/activation
caspase-14: purified recombinant caspase-14 material containing small amount of active caspase-14 (protein) KPDMESEMSDPQPLQEERYDMSGARLALTLCVTKAREGSEVDMEALERMFRYLKFESTMKRDPTAQQFLEELDEFQQTIDNWEEPVSCAFVVLMAHGEEGLLKGEDEKMVRLEDLFEVLNNKNCKALRGKPKVYIIQACRGEHRDPGEELRGNEELGGDEELGGDEVAVLKNNPQSIPTYTDTLHIYSTVEGYLSYRHDEKGSGFIQTLTDVFIHKKGSILELTEEITRLMANTEVMQEGKPRKVNPEVQSTLRKKLYLQ | Some processing |  |  | 
TRAIL: cytotoxic ligand TRAIL (protein, UniProt P50591 1-281, looked up) Tumor necrosis factor ligand …: MAMMEVQGGPSLGQTCVLIVIFTVLLQSLCVAVTYVYFTNELKQMQDKYSKSGIACFLKEDDSYWDPNDEESMNSPCWQVKWQLRQLVRKMILRTSEETISTVQEKQQNISPLVRERGPQRVAAHITGTRGRSNTLSSPNSKNEKALGRKINSWESSRSGHSFLSNLHLRNGELVIHEKGFYYIYSQTYFRFQEEIKENTKNDKQMVQYIYKYTSYPDPILLMKSARNSCWSKDAEYGLYSIYQGGIFELKENDRIFVSVTNEHLIDMDHEASFFGAFLVG |  |  |  | processing of procaspase-14 (decreased intensity of proenzyme band) (procaspase-14): able to induce processing; processing of procaspase-7 (decreased intensity of proenzyme band) (procaspase-7): able to induce processing
